Laboratory results from article PMC8009421, “Characterization of a broadly specific cadaverine N-hydroxylase involved in desferrioxamine B biosynthesis in Streptomyces sviceus” (PLoS ONE, 2021).
One block for each compound: values may come before it.

What was measured:
[1] = system: NC(=O)C1=CN([C@@H]2O[C@H](COP(=O)(O)OP(=O)(O)OC[C@H]3O[C@@H](n4cnc5c(N)ncnc54)[C@H](O)[C@@H]3O)[C@@H](O)[C@H]2O)C=CC1; experiment: Csaky iodine oxidation product formation assay; format: biochemical, Streptomyces sviceus; conditions: 10 mM cadaverine, 50 μM FAD, pH 8.0, 25°C, Haldane fit
Description: (§1) Csaky iodine oxidation product formation assay on SsDesB (without N-terminal hexahistidine tag)

[2] = system: NC(=O)C1=CN([C@@H]2O[C@H](COP(=O)(O)OP(=O)(O)OC[C@H]3O[C@@H](n4cnc5c(N)ncnc54)[C@H](O)[C@@H]3O)[C@@H](O)[C@H]2O)C=CC1; experiment: purified protein; format: biochemical, Streptomyces sviceus; conditions: 10 mM cadaverine, 50 μM FAD, 25°C, Haldane fit
[3] = target: T1, SsDesB (without N-terminal hexahistidine tag) (Streptomyces sviceus, UniProt B5HNG5); experiment: Csaky iodine oxidation product formation assay; format: biochemical; conditions: substrate inhibition constant (Haldane), 50 μM FAD, pH 8.0, 25°C
T1 construct: gene SSEG_08523; T2-V425, N-terminal His6 cut off with TEV protease (ENLYFQ/T); codon-optimized gene, E. coli Rosetta2(DE3); homotetramer
Description: as §1

[4] = target: T2, SsDesB with N-terminal hexahistidine tag (Streptomyces sviceus, UniProt B5HNG5); experiment: NADH oxidation at […] nm; format: biochemical; conditions: substrate inhibition constant (Haldane); 0.7 mM NADH, 50 μM FAD, 25°C
T2 construct: gene SSEG_08523

[5] = target: T1, SsDesB (without N-terminal hexahistidine tag); experiment: X-ray crystal structure, […] Å; conditions: ternary complex with FAD; NADPH-binding site
[6] = target: T1, SsDesB (without N-terminal hexahistidine tag); experiment: X-ray crystal structure, […] Å; conditions: holoenzyme; FAD-binding site; also in 6XBB

Compound: SsDesB (without N-terminal hexahistidine tag) (Streptomyces sviceus ATCC 29083)
Km [1]: 130 ± 49 µM
kcat [1]: 0.094 ± 0.018 s⁻¹
kcat/Km [1]: 710 ± 260 M⁻¹ s⁻¹

Compound: SsDesB with N-terminal hexahistidine tag (Streptomyces sviceus ATCC 29083)
Km [2]: 120 ± 36 µM
kcat [2]: 0.38 ± 0.09 s⁻¹
kcat/Km [2]: 3300 ± 1300 M⁻¹ s⁻¹

KI ([3]; 10 mM cadaverine): 1000 ± 400 µM
Compound: NC(=O)C1=CN([C@@H]2O[C@H](COP(=O)(O)OP(=O)(O)OC[C@H]3O[C@@H](n4cnc5c(N)ncnc54)[C@H](O)[C@@H]3O)[C@@H](O)[C@H]2O)C=CC1 [NADH]

KI ([3]; 10 mM cadaverine): 1100 ± 600 µM
Compound: NC(=O)C1=CN([C@@H]2O[C@H](COP(=O)(O)OP(=O)(O)OC[C@H]3O[C@@H](n4cnc5c(N)ncnc54)[C@H](OP(=O)(O)O)[C@@H]3O)[C@@H](O)[C@H]2O)C=CC1 [NADPH]

KI [4]: 2200 ± 1800 µM
KI ([3]; 0.7 mM NADPH (Fig 3 legend says NADH)): 27000 ± 22000 µM
Compound: NCCCCCN [cadaverine]

Compound: NC(=O)c1ccc[n+]([C@@H]2O[C@H](COP(=O)(O)OP(=O)(O)OC[C@H]3O[C@@H](n4cnc5c(N)ncnc54)[C@H](OP(=O)(O)O)[C@@H]3O)[C@@H](O)[C@H]2O)c1 [NADP^+]
X-ray crystal structure, 2.37 Å [5]: the NADP^+ cofactor is held in the active site pocket in an elongated manner

Compound: Cc1cc2nc3c(=O)[nH]c(=O)nc-3n(C[C@H](O)[C@H](O)[C@H](O)COP(=O)(O)OP(=O)(O)OC[C@H]3O[C@@H](n4cnc5c(N)ncnc54)[C@H](O)[C@@H]3O)c2cc1C [FAD]
X-ray crystal structure, 2.86 Å [6]: FAD molecule is bound in an elongated conformation with the fully planar isoalloxazine ring
